{"source": "patent US20130244232A1", "about": "“HIGH-EFFICIENCY CATALYSTS, PREPARATION AND USE THEREOF” (priority 2012, published 2013)", "key": {"[1]": {"test": "Peroxidase activity: ABTS oxidation with H2O2 (formation of ABTS+• radical cation at 660 nm)", "type": "biochemical", "conditions": "for Specific activity: ABTS oxidation with H2O2, pH 6.5", "description": "The peroxidase activity of the compound on the secondary substrate ABTS was evaluated by following the formation of the ABTS^+• radical cation, in the presence of H2O2.\nThe reaction was followed by using spectrophotometry, measuring the appearance of the products in the reaction medium. The formation of ABTS^+• cation radical was followed at 660 nm (λmax (ε)=660 nm (1.40×10^4 M^−1cm^−1)). The reaction was performed in 50% TFE (v/v) 100 mM phosphate buffer, pH 6.5, using a 2.0×10^−7 M catalyst concentration.\nKinetic parameters of the compound were determined by varying the H2O2 concentration using fixed concentrations of the reducing substrates, and vice versa.\nIn more details, in the experiments performed at various H2O2 concentrations (in the range 0.01÷ 200 mM) the ABTS concentration was kept constant at 0.1 mM. In the experiments performed at various ABTS concentrations (in the range 0.005÷ 0.1 mM) the H2O2 concentration was 50 mM.\nThe experiments were performed in 50% TFE (v/v) 100 mM phosphate buffer, pH 6.5. As described in the example 10, the catalytic process was evaluated by following the formation of the ABTS^+• radical cation at 660 nm (c=[…] cm^−1). Kinetic parameters of the compound were determined by varying the H2O2 concentration using fixed concentrations of the reducing substrates, and vice versa.\nIn more details, in the first experiment the ABTS and the conjugate concentrations were kept constant at 0.1 mM and 2 10^−7 M, respectively, and the H2O2 concentration was varied in the range 10-100 mM. In the second experiment, the H2O2 and the conjugate concentrations were fixed at 50 mM and 2 10^−7 M, respectively, and the ABTS concentration was varied in the range 0.005÷ 0.1 mM."}, "[2]": {"test": "Peroxidase activity: guaiacol oxidation with H2O2 (tetraguaiacol formation at 470 nm)", "type": "biochemical", "description": "The peroxidase activity on the guaiacol substrate was evaluated by following the formation of guaiacol oxidation product, tetraguaiacol. Changes in the absorbance at 470 nm were measured, considering a ε470=2.66×10^4 M^−1cm^−1.\nIn details, in the experiments performed at various H2O2 concentrations (in the range 1÷ 40 mM), the guaiacol concentration was kept constant at 0.1 mM. In the experiments performed at various guaiacol concentrations, in the range 0.0025÷ 0.07 mM, the H2O2 concentration was 10 mM."}, "[3]": {"test": "Phenol nitration (NaNO2/H2O2), HPLC analysis", "type": "biochemical", "conditions": "40 min, room temperature, substrate and oxidant 1.0 mM, 40 mM NO2−, 0.2 μM catalyst, pH 6.5, 50% TFE", "description": "For the compound Fe(III)-3,7,12,17-tetramethyl-porphyrin-2(18)-N9epsilon-(Ace-Asp1-Glu2-Gln3-Gln4-Leu5-His6-Ser7-Gln8-Lys9-Arg10-Lys11-Ile12-Thr13-Leu14-NH2)-18(2)-N9epsilon-(Ace-Asp1-Glu2-Gln3-Gln4-Leu5-Ser6-Ser7-Gln8-Lys9-Arg10-NH2)-di-propionammide, whose synthesis is described in example 1, the ability to catalyze phenol nitration was evaluated. […] The concentrations of the starting material and products were determined from calibration curves constructed using commercial samples and 4-cyanophenol as internal standard. Standard incubation for phenol nitration were performed at 1 mM phenol in the presence of 0.2 μM catalyst, 20 mM NaNO2 and 3 mM H2O2 in phosphate buffer, pH 6.5, 50% TFE (v/v).\nThe reactions were performed at room temperature with an incubation time of 40 min. […] The yield of 4- and 2-nitrophenol at 40 min reaction time increased by increasing H2O2 NO2″ and phenol concentrations. The maximum yield of nitrophenols (4- and 2-) was obtained at a substrate and oxidant concentrations of 1.0 mM, and at 40 mM NO2^− concentration, respectively."}, "[4]": {"conditions": "ABTS oxidation with H2O2, pH 7.0; cited from earlier work"}, "[5]": {"conditions": "in the presence of lactoperoxidase; cited from earlier work"}, "[6]": {"conditions": "ABTS oxidation with H2O2, pH 6.5, 50% TFE (v/v) 100 mM phosphate buffer"}, "[7]": {"conditions": "ABTS oxidation with H2O2, pH 6.5, 50% TFE (v/v) 100 mM phosphate buffer, read-out: Km^H2O2"}, "[8]": {"conditions": "AH2 = ABTS, pH 6.5, 50% TFE (v/v) 100 mM phosphate buffer, read-out: Km^AH2"}}, "note": "Like-named read-outs stand apart in the source and are kept apart here.", "data": [{"substance": "3,7,12,17-tetramethyl-porphyrin-2 (18)-N9epsilon-(Ace-Asp1-Glu2-Gln3-Gln4-Leu5-His6-Ser7-Gln8-Lys9-Arg10-Lys11-Ile12-Thr13-Leu14-NH2)-18(2)-N9epsilon-(Ace-Asp1-Glu2-Gln3-Gln4-Leu5-Gly6-Ser7-Gln8-Lys9-Arg10-NH2)-di-propionamide [Example 7]", "values": [{"measurement": "Specific activity", "setting": "[1]", "result": 7.976, "unit": "mol/g/min"}, {"measurement": "kcat", "setting": "[1]; [6]", "result": 468, "unit": "s⁻¹"}, {"measurement": "Km", "setting": "[1]; [7]", "result": 46000, "unit": "µM"}, {"measurement": "Km", "setting": "[1]; [8]", "result": 125, "unit": "µM"}]}, {"substance": "3,7,12,17-tetramethyl-porphyrin-2(18)-N9epsilon-(Ace-Asp1-Glu2-Gln3-Gln4-Leu5-His6-Ser7-Gln8-Lys9-Arg10-Lys11-Ile12-Thr13-Leu14-NH2)-18(2)-N9epsilon-(Ace-Asp1-Glu2-Gln3-Gln4-Leu5-Ser6-Ser7-Gln8-Lys9-Leu10-NH2)-di-propionamide [Example 9]", "values": [{"measurement": "Specific activity", "setting": "[1]", "result": 2.890, "unit": "mol/g/min"}, {"measurement": "kcat", "setting": "[1]; [6]", "result": 169, "unit": "s⁻¹"}, {"measurement": "Km", "setting": "[1]; [7]", "result": 20000, "unit": "µM"}, {"measurement": "Km", "setting": "[1]; [8]", "result": 29, "unit": "µM"}]}, {"substance": "3,7,12,17-tetramethyl-porphyrin-2(18)-N9epsilon-(Ace-Asp1-Glu2-Gln3-Gln4-Leu5-His6-Ser7-Gln8-Lys9-Arg10-Lys11-Ile12-Thr13-Leu14-NH2)-18(2)-N9epsilon-(Ace-Asp1-Leu2-Gln3-Gln4-Leu5-Ser6-Ser7-Gln8-Lys9-Arg10-NH2)-di-propionamide [Example 8]", "values": [{"measurement": "Specific activity", "setting": "[1]", "result": 6.463, "unit": "mol/g/min"}, {"measurement": "kcat", "setting": "[1]; [6]", "result": 381, "unit": "s⁻¹"}, {"measurement": "Km", "setting": "[1]; [7]", "result": 96000, "unit": "µM"}, {"measurement": "Km", "setting": "[1]; [8]", "result": 115, "unit": "µM"}]}, {"substance": "3,7,12,17-tetramethyl-porphyrin-2(18)-N9epsilon-(Ace-Asp1-Glu2-Gln3-Gln4-Leu5-His6-Ser7-Gln8-Lys9-Leu10-Lys11-Ile12-Thr13-Leu14-NH2)-18(2)-N9epsilon-(Ace-Asp1-Glu2-Gln3-Gln4-Leu5-Ser6-Ser7-Gln8-Lys9-Arg10-NH2)-di-propionamide [Example 5]", "values": [{"measurement": "Specific activity", "setting": "[1]", "result": 11.72, "unit": "mol/g/min"}, {"measurement": "kcat", "setting": "[1]; [6]", "result": 685, "unit": "s⁻¹"}, {"measurement": "Km", "setting": "[1]; [7]", "result": 54000, "unit": "µM"}, {"measurement": "Specific activity", "setting": "[1]; listed as Esempio 5", "result": 11.716, "unit": "mol/g/min"}, {"measurement": "Km", "setting": "[1]; [8]", "result": 38, "unit": "µM"}]}, {"substance": "3,7,12,17-tetramethylporphyrin-18(2)-propionicacid-2(18)-N9epsilon-(Ac-Asp1-Glu2-Gln3-Gln4-Leu5-His6-Ser7-Gln8-Lys9-Arg10-Lys11-Ile12-Thr13-Leu14-NH2)propionamide [Example 4]", "values": [{"measurement": "Specific activity", "setting": "[1]", "result": 17.86, "unit": "mol/g/min"}, {"measurement": "kcat", "setting": "[1]; [6]", "result": 688, "unit": "s⁻¹"}, {"measurement": "Km", "setting": "[1]; [7]", "result": 80000, "unit": "µM"}, {"measurement": "Specific activity", "setting": "[1]; listed as Esempio 4", "result": 17.860, "unit": "mol/g/min"}, {"measurement": "Km", "setting": "[1]; [8]", "result": 130, "unit": "µM"}]}, {"substance": "Fe(III)-3,7,12,17-tetramethyl-porphyrin-2(18)-N9epsilon-(Ace-Asp1-Glu2-Gln3-Gln4-Leu5-His6-Ser7-Gln8-Lys9-Arg10-Lys11-Ile12-Thr13-Leu14-NH2)-18(2)-N9epsilon-(Ace-Asp1-Glu2-Gln3-Gln4-Leu5-Ser6-Ser7-Gln8-Lys9-Arg10-NH2)-di-propionammide [Example 1]", "values": [{"measurement": "Km", "setting": "[2]; AH2 = guaiacol", "result": "9.2 ± 0.4", "unit": "µM"}, {"measurement": "kcat", "setting": "[2]; guaiacol oxidation with H2O2", "result": "8.0 ± 0.1", "unit": "s⁻¹"}, {"measurement": "specific activity for guaiacol oxidation relative to horseradish peroxidase", "setting": "[2]; versus horseradish peroxidase", "result": "two times higher"}, {"measurement": "Specific activity", "setting": "[1]", "result": 6.269, "unit": "mol/g/min"}, {"measurement": "kcat", "setting": "[1]; [6]", "result": "370.9 ± 14", "unit": "s⁻¹"}, {"measurement": "kcat", "setting": "[1]; ABTS oxidation with H2O2, pH 6.5, 50% TFE (v/v) 100 mM phosphate buffer, listed as Esempio 1", "result": 371, "unit": "s⁻¹"}, {"measurement": "Km", "setting": "[1]; [7]", "result": 44000, "unit": "µM"}, {"measurement": "Km", "setting": "[1]; [8]", "result": 84, "unit": "µM"}, {"measurement": "Km", "setting": "[1]; AH2 = ABTS, pH 6.5, 50% TFE, 2.0×10^−7 M catalyst, read-out: Km^AH2", "result": "84 ± 2", "unit": "µM"}, {"measurement": "specific activity for ABTS oxidation", "setting": "[1]; pH=6.5", "result": 104, "unit": "mmol/g/s"}, {"measurement": "total yield of nitrophenols (4- and 2-)", "setting": "[3]", "result": "about 14.8%"}]}, {"substance": "H-Cys-Ala-Gln-Cys-His-Thr-Val-Glu-OH (CAQCHTVE; heme covalently attached; printed: Cys-Ala-Gln-Cys-His-Thr-Val-Glu-) [MP8, microperoxidase, mono-adduct porphyrin obtained from proteolytic digestion of cytochromes c]", "values": [{"measurement": "Specific activity", "setting": "[4]", "result": 0.000104, "unit": "mol/g/min"}, {"measurement": "kcat", "setting": "[4]", "result": 0.0026, "unit": "s⁻¹"}]}, {"substance": "H-VQKCAQCHTVE-OH (cysteine pairing not given here) [MP11]", "values": [{"measurement": "Specific activity", "setting": "[4]", "result": 0.000419, "unit": "mol/g/min"}, {"measurement": "kcat", "setting": "[4]", "result": 0.013, "unit": "s⁻¹"}]}, {"substance": "lactoperoxidase", "values": [{"measurement": "total yield of nitrophenols relative to the compound of example 1", "setting": "[5]", "result": "fourfold higher"}]}]}
